Measured values reported in PMC7158967, “Comparative evaluation of ^68Ga-labelled TATEs: the impact of chelators on imaging” (EJNMMI Research, 2020).
Read-outs that look alike come from different tables or passages of the source.

Legend:
[1] = tested on: KM mice; conditions: mouse, in vivo
Method: Thirty KM mice were randomly divided into a control group, a ^68Ga- NOTA-TATE low-dose group (100 μCi) and a high-dose group (1 mCi). Each group contained 10 mice, half female and half male. The dose of the appropriate compound was administered through the tail vein at an administration volume of 0.2 mL. The animal blood routine, body weight and animal feed consumption were performed before administration and on days 4, 7, 14, 21 and 28 after administration. At the end of the observation period, the surviving mice were dissected, and histopathological examination was performed on the myocardium, liver, spleen, lung, kidney, stomach, intestine, gonad, bone, muscle and brain of each mouse.

[2] = Biodistribution in AR42J tumour-bearing nude mice; conditions: mouse, in vivo; for tissue to tissue ratio at 0.25 h / tissue to tissue ratio at 0.5 h / tissue to tissue ratio at 1 h / tissue to tissue ratio at 2 h: both sexes, nude, iv, 0.1 mCi, total radioactivity
Method: (§1) Tumour cells were subcutaneously injected into the left forelimb of each nude mouse. Biodistribution and imaging studies were conducted when the tumour volume reached at least 1.0 × 1.0 × 1.0 cm^3.

[3] = Micro-PET/CT imaging of AR42J tumour-bearing nude mice; conditions: both sexes, mouse, in vivo, iv, 2.96 MBq, total radioactivity, nude mice bearing AR42J tumours, read-out: SUVmax, 3D micro-PET/CT
Method: as §1
Six (3 female and 3 male) mice with AR42J tumour xenografts (15–20 g) were used in the imaging study. All tumour-bearing mice were anaesthetized by intranasal inhalation of isoflurane. […] Images were acquired and reconstructed using micro-PET/CT at 30 min and 2 h after intravenous injection.

[4] = type: in vitro ADME; conditions: human
Method: In vitro serum binding studies for both ^68Ga-labelled NOTA-TATE and DOTA-TATE were carried out by following a generalized procedure summarized below. One millilitre of fresh anticoagulated (heparinized) human plasma was prepared. Freshly labelled compound (3.7 MBq, 0.1 mCi) was added to three centrifuge tubes, each containing 0.1 mL of human plasma. After incubation at 37 °C for 2 h, 1 mL of ice-cold methanol was added to each tube. The mixtures were separated by centrifugation (5 min, 3000 rpm) to collect the supernatant, which was repeated three times. A gamma counter was then used to measure the radioactivity of the supernatant (A) and the precipitate (B) in counts per minute (CPM); the plasma-protein binding rate was calculated as PPB = B/(A + B)100%, and the average of three tubes was recorded.

[5] = tested on: healthy volunteers; experiment: clinical; conditions: human, in vivo
Method: (§2) Twenty-two healthy volunteers gave informed consent and agreed to participate in the study. […] Each patient was injected with an average activity of 1.9 MBq/kg. The timing of image acquisition ranged from 30 to 45 min after injection (3 min/bed position). The PET image was attenuated and then reconstructed using the iterative reconstruction algorithm implemented.

[6] = clinical; conditions: human, in vivo, total radioactivity
Method: as §2

Structure (SMILES): C[C@@H](O)[C@@H]1NC(=O)[C@H](CCCCN)NC(=O)[C@@H](Cc2c[nH]c3ccccc23)NC(=O)[C@H](Cc2ccccc2)NC(=O)[C@@H](NC(=O)[C@@H](Cc2ccccc2)NC(=O)CN2CCN(CC(=O)O)CCN(CC(=O)O)CC2)CSSC[C@@H](C(=O)N[C@H](CO)[C@@H](C)O)NC1=O [^68Ga-NOTA-TATE, metal not drawn]
- acute animal toxicity, overall finding [1]: no apparent toxicity
- histopathological examination [1]: no toxic pathological changes
- tissue to tissue ratio at 0.25 h [2]: 12.5
- tissue to tissue ratio at 0.5 h [2]: 8.45
- tissue to tissue ratio at 1 h [2]: 39.5
- tissue to tissue ratio at 2 h [2]: 44.3
- tissue to tissue ratio at 0.25 h ([2]; 15 min postinjection, read-out: Tumour/kidney ratio): 0.18
- tissue to tissue ratio at 0.5 h ([2]; 0.5 h postinjection, read-out: Tumour/kidney ratio): 0.94
- tissue to tissue ratio at 1 h ([2]; 1 h postinjection, read-out: Tumour/kidney ratio): 0.81
- tissue to tissue ratio at 2 h ([2]; 2 h postinjection, read-out: Tumour/kidney ratio): 0.79
- tissue uptake at 0.25 h ([2]; %ID/g Blood): 3.25 ± 1.06 %ID/g
- tissue uptake at 0.5 h ([2]; %ID/g Blood): 1.01 ± 0.42 %ID/g
- tissue uptake at 1 h ([2]; %ID/g Blood): 0.58 ± 0.24 %ID/g
- tissue uptake at 2 h ([2]; %ID/g Blood): 0.07 ± 0.06 %ID/g
- tissue uptake at 0.25 h ([2]; %ID/g Gallbladder): 3.62 ± 1.94 %ID/g
- tissue uptake at 0.5 h ([2]; %ID/g Gallbladder): 6.21 ± 2.69 %ID/g
- tissue uptake at 1 h ([2]; %ID/g Gallbladder): 1.83 ± 0.84 %ID/g
- tissue uptake at 2 h ([2]; %ID/g Gallbladder): 1.61 ± 0.67 %ID/g
- tissue uptake at 0.25 h ([2]; %ID/g Intestines): 0.07 ± 0.04 %ID/g
- tissue uptake at 0.5 h ([2]; %ID/g Intestines): 0.03 ± 0.02 %ID/g
- tissue uptake at 1 h ([2]; %ID/g Intestines): 0.21 ± 0.09 %ID/g
- tissue uptake at 2 h ([2]; %ID/g Intestines): 0.13 ± 0.07 %ID/g
- tissue uptake at 0.25 h ([2]; %ID/g Kidney): 17.1 ± 6.39 %ID/g
- tissue uptake at 0.5 h ([2]; %ID/g Kidney): 4.23 ± 2.73 %ID/g
- tissue uptake at 1 h ([2]; %ID/g Kidney): 3.79 ± 2.16 %ID/g
- tissue uptake at 2 h ([2]; %ID/g Kidney): 1.69 ± 1.02 %ID/g
- tissue uptake at 0.25 h ([2]; %ID/g Liver): 1.19 ± 0.54 %ID/g
- tissue uptake at 0.5 h ([2]; %ID/g Liver): 0.43 ± 0.23 %ID/g
- tissue uptake at 1 h ([2]; %ID/g Liver): 0.07 ± 0.04 %ID/g
- tissue uptake at 2 h ([2]; %ID/g Liver): 0.04 ± 0.02 %ID/g
- tissue uptake at 0.25 h ([2]; %ID/g Lungs): 3.64 ± 1.56 %ID/g
- tissue uptake at 0.5 h ([2]; %ID/g Lungs): 0.21 ± 0.17 %ID/g
- tissue uptake at 1 h ([2]; %ID/g Lungs): 0.64 ± 0.41 %ID/g
- tissue uptake at 2 h ([2]; %ID/g Lungs): 0.48 ± 0.21 %ID/g
- tissue uptake at 0.25 h ([2]; %ID/g Muscle): 0.26 ± 0.03 %ID/g
- tissue uptake at 0.5 h ([2]; %ID/g Muscle): 0.47 ± 0.26 %ID/g
- tissue uptake at 1 h ([2]; %ID/g Muscle): 0.08 ± 0.06 %ID/g
- tissue uptake at 2 h ([2]; %ID/g Muscle): 0.03 ± 0.01 %ID/g
- tissue uptake at 0.25 h ([2]; %ID/g Skeleton): 2.14 ± 1.41 %ID/g
- tissue uptake at 0.5 h ([2]; %ID/g Skeleton): 1.46 ± 0.37 %ID/g
- tissue uptake at 1 h ([2]; %ID/g Skeleton): 0.85 ± 0.38 %ID/g
- tissue uptake at 2 h ([2]; %ID/g Skeleton): 0.13 ± 0.07 %ID/g
- tissue uptake at 0.25 h ([2]; %ID/g Spleen): 0.19 ± 0.08 %ID/g
- tissue uptake at 0.5 h ([2]; %ID/g Spleen): 0.13 ± 0.11 %ID/g
- tissue uptake at 1 h ([2]; %ID/g Spleen): 0.12 ± 0.06 %ID/g
- tissue uptake at 2 h ([2]; %ID/g Spleen): 0.03 ± 0.01 %ID/g
- tissue uptake at 0.25 h ([2]; %ID/g Stomach): 0.19 ± 0.13 %ID/g
- tissue uptake at 0.5 h ([2]; %ID/g Stomach): 3.55 ± 1.83 %ID/g
- tissue uptake at 1 h ([2]; %ID/g Stomach): 1.61 ± 1.03 %ID/g
- tissue uptake at 2 h ([2]; %ID/g Stomach): 1.11 ± 0.21 %ID/g
- tissue uptake at 0.25 h ([2]; %ID/g Tumour): 3.24 ± 1.03 %ID/g
- tissue uptake at 0.5 h ([2]; %ID/g Tumour): 3.97 ± 2.24 %ID/g
- tissue uptake at 1 h ([2]; %ID/g Tumour): 3.16 ± 1.92 %ID/g
- tissue uptake at 2 h ([2]; %ID/g Tumour): 1.33 ± 0.96 %ID/g
- SUV at 0.5 h ([3]; 30 min after i.v. injection): 3.02 SUV
- SUV at 2 h ([3]; 120 min after i.v. injection): 1.64 SUV
- fraction unbound at 2 h [4]: 0.879
- SUVmax Adrenals, range [5]: 5.7~15.6
- SUVmax Blood pool, range [5]: 0.9~1.6
- SUVmax Bone marrow, range [5]: 0.7~1.1
- SUVmax Breast, range [5]: 0.5~1.1
- SUVmax Kidneys, range [5]: 6.2~20.3
- SUVmax Large bowel, range [5]: 1.0~2.4
- SUVmax Liver, range [5]: 1.3~6.3
- SUVmax Lungs, range [5]: 0.3~0.9
- SUVmax Lymph nodes, range [5]: 0.8~1.4
- SUVmax Palatine tonsil, range [5]: 0.6~1.8
- SUVmax Pancreas, range [5]: 2.0~5.5
- SUVmax Parotid gland, range [5]: 0.7~1.3
- SUVmax Pituitary gland, range [5]: 0.7~2.3
- SUVmax Small bowel, range [5]: 1.4~2.5
- SUVmax Spleen, range [5]: 10.7~17.1
- SUVmax Stomach, range [5]: 1.6~4.9
- SUVmax Submandibular, range [5]: 0.7~1.4
- SUVmax Thymus, range [5]: 0.6~1.4
- SUVmax Thyroid, range [5]: 1.2~2.5
- radioactivity in the gallbladder [5]: not seen
- side effects after administration [5]: no apparent side effects
- uptake in the brain [5]: No apparent
- SUV ([6]; both sexes, 1.9 MBq/kg, SUVmax Adrenals, average): 10.7 SUV
- SUV ([6]; both sexes, 1.9 MBq/kg, SUVmax Blood pool, average): 1.4 SUV
- SUV ([6]; both sexes, 1.9 MBq/kg, SUVmax Bone marrow, average): 0.9 SUV
- SUV ([6]; both sexes, 1.9 MBq/kg, SUVmax Kidneys, average): 14.1 SUV
- SUV ([6]; both sexes, 1.9 MBq/kg, SUVmax Large bowel, average): 1.5 SUV
- SUV ([6]; both sexes, 1.9 MBq/kg, SUVmax Liver, average): 4.2 SUV
- SUV ([6]; both sexes, 1.9 MBq/kg, SUVmax Lungs, average): 0.6 SUV
- SUV ([6]; both sexes, 1.9 MBq/kg, SUVmax Lymph nodes, average): 1.2 SUV
- SUV ([6]; both sexes, 1.9 MBq/kg, SUVmax Palatine tonsil, average): 1.3 SUV
- SUV ([6]; both sexes, 1.9 MBq/kg, SUVmax Pancreas, average): 3.7 SUV
- SUV ([6]; both sexes, 1.9 MBq/kg, SUVmax Parotid gland, average): 0.9 SUV
- SUV ([6]; both sexes, 1.9 MBq/kg, SUVmax Pituitary gland, average): 1.5 SUV
- SUV ([6]; both sexes, 1.9 MBq/kg, SUVmax Small bowel, average): 1.8 SUV
- SUV ([6]; both sexes, 1.9 MBq/kg, SUVmax Spleen, average): 14.6 SUV
- SUV ([6]; both sexes, 1.9 MBq/kg, SUVmax Stomach, average): 2.4 SUV
- SUV ([6]; both sexes, 1.9 MBq/kg, SUVmax Submandibular, average): 1.2 SUV
- SUV ([6]; both sexes, 1.9 MBq/kg, SUVmax Thymus, average): 1.1 SUV
- SUV ([6]; both sexes, 1.9 MBq/kg, SUVmax Thyroid, average): 1.7 SUV
- SUV ([6]; both sexes, iv, 1.9 MBq/kg, SUVmax Breast, average): 0.7 SUV
- SUV ([6]; iv, 1.86 mCi, SUVmax kidney, single volunteer): 12.5 SUV
- SUV ([6]; iv, 1.86 mCi, SUVmax liver, single volunteer): 1.4 SUV
- SUV ([6]; iv, 1.86 mCi, SUVmax pituitary, single volunteer): 1.9 SUV
- SUV ([6]; iv, 1.86 mCi, SUVmax spleen, single volunteer): 6.8 SUV
- SUV ([6]; iv, 3.83 mCi, SUVmax kidney, single volunteer): 6.2 SUV
- SUV ([6]; iv, 3.83 mCi, SUVmax liver, single volunteer): 1.3 SUV
- SUV ([6]; iv, 3.83 mCi, SUVmax pituitary, single volunteer): 0.7 SUV
- SUV ([6]; iv, 3.83 mCi, SUVmax spleen, single volunteer): 3.9 SUV
